Test results: US20050065320A1

Assays:
[1] = target: g12 mutant (Env protein) of the HIV-1 isolate 133 (HIV-1 primary isolate 133); experiment: capture ELISA, 17b 1 µg/ml
[2] = target: g12 mutant (Env protein) of the HIV-1 isolate 133 (HIV-1 primary isolate 133); experiment: capture ELISA on lysates and supernatants, F105 1 µg/ml

17b human monoclonal antibody
signal relative to the native protein [1]: 3 times

F105 human monoclonal antibody (NIBSC)
signal relative to the native protein [2]: < 4.5 times
